From patent US20180231560A1 come the findings set out here.

In this experiment the target is c-MET protein (Homo sapiens (Human)) (UniProt P08581). As to the kind of experiment: immunomagnetic capture of spiked c-MET expressing cell lines by anti-c-MET ferrofluid.
Chain of UniProt P08581 (P08581 25-1390 limits assumed): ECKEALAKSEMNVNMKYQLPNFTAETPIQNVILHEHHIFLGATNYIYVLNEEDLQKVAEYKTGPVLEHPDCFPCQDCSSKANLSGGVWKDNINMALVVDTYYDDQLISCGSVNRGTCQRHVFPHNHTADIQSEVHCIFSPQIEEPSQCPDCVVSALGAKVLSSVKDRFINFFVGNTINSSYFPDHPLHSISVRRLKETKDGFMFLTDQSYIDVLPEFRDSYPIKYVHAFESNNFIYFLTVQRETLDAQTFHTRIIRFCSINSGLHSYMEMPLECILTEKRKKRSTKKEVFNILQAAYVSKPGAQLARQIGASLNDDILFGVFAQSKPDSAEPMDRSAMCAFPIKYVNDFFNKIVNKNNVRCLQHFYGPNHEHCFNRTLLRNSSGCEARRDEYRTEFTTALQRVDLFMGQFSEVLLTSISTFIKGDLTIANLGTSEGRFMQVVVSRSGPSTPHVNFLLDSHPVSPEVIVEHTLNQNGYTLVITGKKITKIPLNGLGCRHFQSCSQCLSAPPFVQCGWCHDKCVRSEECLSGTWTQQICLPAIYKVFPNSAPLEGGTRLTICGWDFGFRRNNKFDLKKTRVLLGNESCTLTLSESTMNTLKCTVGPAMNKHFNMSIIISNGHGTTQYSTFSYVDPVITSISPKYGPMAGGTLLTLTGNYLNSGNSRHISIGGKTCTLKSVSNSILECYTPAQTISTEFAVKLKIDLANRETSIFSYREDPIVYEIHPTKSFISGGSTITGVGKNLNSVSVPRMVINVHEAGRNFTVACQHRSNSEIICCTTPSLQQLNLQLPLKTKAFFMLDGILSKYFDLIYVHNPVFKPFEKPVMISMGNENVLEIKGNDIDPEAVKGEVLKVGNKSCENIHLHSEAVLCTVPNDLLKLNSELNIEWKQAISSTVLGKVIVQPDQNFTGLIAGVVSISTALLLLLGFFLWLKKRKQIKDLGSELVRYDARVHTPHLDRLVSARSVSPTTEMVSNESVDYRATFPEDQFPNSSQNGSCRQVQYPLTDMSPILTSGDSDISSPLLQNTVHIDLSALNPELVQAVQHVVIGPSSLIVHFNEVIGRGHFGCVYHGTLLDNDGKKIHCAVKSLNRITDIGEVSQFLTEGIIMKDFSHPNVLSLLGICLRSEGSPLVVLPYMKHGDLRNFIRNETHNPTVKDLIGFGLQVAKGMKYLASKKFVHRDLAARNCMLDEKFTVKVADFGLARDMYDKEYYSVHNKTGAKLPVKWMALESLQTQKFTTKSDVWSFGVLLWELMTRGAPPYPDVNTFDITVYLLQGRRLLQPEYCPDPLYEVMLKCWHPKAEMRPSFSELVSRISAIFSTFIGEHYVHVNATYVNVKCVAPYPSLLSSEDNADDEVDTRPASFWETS

Consider “HGF R/c-MET Antibody clone L6E7 (Cell Signaling Technologies), as anti-c-MET ferrofluid”, for which the recovery of c-MET cells lay within 20 to 40%.
